Test results: the supplement of paper PMC10598134
± gives the standard deviation.

Assay: collision cross section of modified peptide (TIMS, N2, iRT-aligned); higher = larger / more extended gas-phase ion
Procedure, shortened: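 Synthetic peptide pools (~100 fmol/µL in 2% acetonitrile/0.1% formic acid, iRT standard spiked 1:40) were separated on a 120-min nanoflow C18 gradient at 60 °C. They were analysed on a timsTOF Pro/HT (dda-PASEF, nitrogen, ~2.4 mbar) and identified with MaxQuant. 1/K0 was calibrated with three reference ions and aligned run-wise to the median iRT peptide deviation. Collision cross section came from the Mason-Schamp equation, averaging 1–3 technical replicates of the most abundant feature per charge state.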

[1] = charge state: 3, modification: hydroxyisobutyryl
[2] = charge state: 2, modification: Butyryl
[3] = charge state: 3, modification: Butyryl
[4] = charge state: 2, modification: GlyGly (K)
[5] = charge state: 3, modification: GlyGly (K)
[6] = charge state: 2, modification: Trimethyl (K)
[7] = charge state: 3, modification: Trimethyl (K)
[8] = charge state: 3, modification: Dimethyl (K)
[9] = charge state: 2, modification: Biotin
[10] = charge state: 2, modification: Methyl (K)
[11] = charge state: 3, modification: Methyl (K)
[12] = charge state: 2, modification: Hydroxyproline
[13] = charge state: 3, modification: Hydroxyproline
[14] = charge state: 2, modification: Acetyl (K)
[15] = charge state: 2, modification: Glutarylation
[16] = charge state: 2, modification: Nitro (Y)

Sequence: TELLPGDRDNLAIQTR [_TELLPGDRDNLAIQT(HexNAc (ST))R_]
- collision cross section (charge state: 3, modification: HexNAc (ST)): 528.81 ± 0.18 Å²

Sequence: VTLEVGKVIQQGR [_VTLEVGK(hydroxyisobutyryl)VIQQGR_]
- collision cross section (charge state: 2, modification: hydroxyisobutyryl): 414.48 ± 0.55 Å²
- collision cross section [1]: 486.66 ± 1.9 Å²

Sequence: IPQEKCILQTDVK [_IPQEK(Butyryl)CILQTDVK_]
- collision cross section [2]: 436.84 ± 0.53 Å²
- collision cross section [3]: 487.47 ± 3.3 Å²

Sequence: GETASKLQSEISR [_GETASK(Butyryl)LQSEISR_]
- collision cross section [2]: 390.84 ± 0.85 Å²
- collision cross section [3]: 467.14 ± 2.9 Å²

Sequence: LTEKELAEAASK [_LTEK(GlyGly (K))ELAEAASK_]
- collision cross section [4]: 404.34 ± 0.36 Å²
- collision cross section [5]: 453.97 ± 1.1 Å²

Sequence: SPPLPEHQKIPCNSAEPK [_SPPLPEHQK(Butyryl)IPCNSAEPK_]
- collision cross section [3]: 542.36 ± 2 Å²

Sequence: VYIASSSGSTAIKK [_VYIASSSGSTAIK(Trimethyl (K))K_]
- collision cross section [6]: 434.92 ± 0.58 Å²
- collision cross section [7]: 501.36 ± 1.6 Å²

Sequence: DFDTALKHYDK [_DFDTALK(Dimethyl (K))HYDK_]
- collision cross section [8]: 452.29 ± 1.2 Å²

Sequence: DESFLGKLGGTLAR [_DESFLGK(Biotin)LGGTLAR_]
- collision cross section [9]: 424.81 Å²
- collision cross section (charge state: 3, modification: Biotin): 506.47 Å²

Sequence: AAINQKLIETGER [_AAINQK(Dimethyl (K))LIETGER_]
- collision cross section (charge state: 2, modification: Dimethyl (K)): 413.1 ± 1.4 Å²
- collision cross section [8]: 468.56 ± 2.6 Å²

Sequence: VDIDVPDVNIEGPDAKLK [_VDIDVPDVNIEGPDAK(Trimethyl (K))LK_]
- collision cross section [6]: 470.5 Å²
- collision cross section [7]: 538.87 ± 1.8 Å²

Sequence: LQDVSGQLSSSKK [_LQDVSGQLSSSK(Succinyl)K_]
- collision cross section (charge state: 2, modification: Succinyl): 402.37 ± 0.79 Å²
- collision cross section (charge state: 3, modification: Succinyl): 468.7 ± 14 Å²

Sequence: IVFSGNLFQHQEDSKK [_IVFSGNLFQHQEDSK(Butyryl)K_]
- collision cross section [2]: 504.05 ± 1 Å²
- collision cross section [3]: 542.63 ± 1.2 Å²

Sequence: DLGKFQVATDALK [_DLGK(Methyl (K))FQVATDALK_]
- collision cross section [10]: 399.05 ± 1.1 Å²
- collision cross section [11]: 491.01 ± 3.2 Å²

Sequence: IISSIEQKEENK [_IISSIEQK(Malonyl)EENK_]
- collision cross section (charge state: 2, modification: Malonyl): 405.63 ± 0.59 Å²

Sequence: DYQPGITFIVVQK [_DYQP(Hydroxyproline)GITFIVVQK_]
- collision cross section [12]: 402.94 ± 0.79 Å²
- collision cross section [13]: 487.91 Å²

Sequence: GEAGPTGPQGEPGVRGIR [_GEAGPTGPQGEP(Hydroxyproline)GVRGIR_]
- collision cross section [13]: 499.21 ± 1.2 Å²

Sequence: DKALPLEAEVAPVK [_DK(Biotin)ALPLEAEVAPVK_]
- collision cross section [9]: 435.06 Å²

Sequence: VLDSGAPIKIPVGPETLGR [_VLDSGAPIK(Formyl)IPVGPETLGR_]
- collision cross section (charge state: 2, modification: Formyl): 463.34 ± 1.2 Å²

Sequence: IVSGKDYNVTANSK [_IVSGK(Acetyl (K))DYNVTANSK_]
- collision cross section [14]: 408.96 ± 0.54 Å²

Sequence: GDKGDAGEPGR [_GDKGDAGEP(Hydroxyproline)GR_]
- collision cross section [12]: 331.51 ± 0.55 Å²
- collision cross section [13]: 414.61 ± 0.42 Å²

Sequence: FLQEFYQDDELGKK [_FLQEFYQDDELGK(GlyGly (K))K_]
- collision cross section [4]: 460.97 ± 1.6 Å²
- collision cross section [5]: 512.67 ± 1.3 Å²

Sequence: SLIGKVDGTSHVTGK [_SLIGKVDGT(HexNAc (ST))SHVTGK_]
- collision cross section (charge state: 2, modification: HexNAc (ST)): 438.41 Å²

Sequence: PGTPAGYGRGR [_PGTPAGYGR(Methyl (R))GR_]
- collision cross section (charge state: 2, modification: Methyl (R)): 362.47 ± 6.7 Å²
- collision cross section (charge state: 3, modification: Methyl (R)): 449.19 ± 8.3 Å²

Sequence: VDVEVPDVSLEGPEGKLK [_VDVEVPDVSLEGPEGK(Gluratylation)LK_]
- collision cross section [15]: 465.13 ± 4.5 Å²
- collision cross section (charge state: 3, modification: Glutarylation): 502.24 Å²

Sequence: TQDQISNIKYHEEFEK [_TQDQISNIK(GlyGly (K))YHEEFEK_]
- collision cross section [5]: 559.05 ± 0.57 Å²

Sequence: LAEEENKAK [_LAEEENK(Gluratylation)AK_]
- collision cross section [15]: 353.09 ± 0.078 Å²

Sequence: AEGYEVAHGGR [_AEGY(Nitro (Y))EVAHGGR_]
- collision cross section [16]: 365.03 ± 0.17 Å²
- collision cross section (charge state: 3, modification: Nitro (Y)): 442.95 ± 1.1 Å²

Sequence: CQGGQETQEYR [_CQGGQETQEY(Nitro (Y))R_]
- collision cross section [16]: 375.36 ± 1.3 Å²

Sequence: VFIGNLNTLVVKKK [_VFIGNLNTLVVK(hydroxyisobutyryl)KK_]
- collision cross section [1]: 515.31 ± 2.1 Å²

Sequence: VYIASSSGSTAIKK [_VYIASSSGSTAIK(Crotonyl)K_]
- collision cross section (charge state: 2, modification: Crotonyl): 419.06 ± 0.81 Å²
- collision cross section (charge state: 3, modification: Crotonyl): 505.65 ± 0.46 Å²

Sequence: LGVATVAKGVCGACK [_LGVATVAK(Methyl (K))GVCGACK_]
- collision cross section [10]: 433.3 ± 0.37 Å²
- collision cross section [11]: 457.05 ± 3.9 Å²

Sequence: SEASSEFAKK [_SEASSEFAK(Acetyl (K))K_]
- collision cross section [14]: 349.46 ± 1 Å²
